IntAct's records for PubMed 18787122

B1: Secreted effector protein SifA (Salmonella typhimurium), Q56061 (parent)
chain: MPITIGNGFLKSEILTNSPRNTKEAWWKVLWEKIKDFFFSTGKAKADRCLHEMLFAERAPTRERLTEIFFELKELACASQRDRFQVHNPHENDATIILRIMDQNEENELLRITQNTDTFSCEVMGNLYFLMKDRPDILKSHPQMTAMIKRRYSEIVDYPLPSTLCLNPAGAPILSVPLDNIEGYLYTELRKGHLDGWKAQEKATYLAAKIQSGIEKTTRILHHANISESTQQNAFLETMAMCGLKQLEIPPPHTHIPIEKMVKEVLLADKTFQAFLVTDPSTSQSMLAEIVEAISDQVFHAIFRIDPQAIQKMAEEQLTTLHVRSEQQSGCLCCFL
partner: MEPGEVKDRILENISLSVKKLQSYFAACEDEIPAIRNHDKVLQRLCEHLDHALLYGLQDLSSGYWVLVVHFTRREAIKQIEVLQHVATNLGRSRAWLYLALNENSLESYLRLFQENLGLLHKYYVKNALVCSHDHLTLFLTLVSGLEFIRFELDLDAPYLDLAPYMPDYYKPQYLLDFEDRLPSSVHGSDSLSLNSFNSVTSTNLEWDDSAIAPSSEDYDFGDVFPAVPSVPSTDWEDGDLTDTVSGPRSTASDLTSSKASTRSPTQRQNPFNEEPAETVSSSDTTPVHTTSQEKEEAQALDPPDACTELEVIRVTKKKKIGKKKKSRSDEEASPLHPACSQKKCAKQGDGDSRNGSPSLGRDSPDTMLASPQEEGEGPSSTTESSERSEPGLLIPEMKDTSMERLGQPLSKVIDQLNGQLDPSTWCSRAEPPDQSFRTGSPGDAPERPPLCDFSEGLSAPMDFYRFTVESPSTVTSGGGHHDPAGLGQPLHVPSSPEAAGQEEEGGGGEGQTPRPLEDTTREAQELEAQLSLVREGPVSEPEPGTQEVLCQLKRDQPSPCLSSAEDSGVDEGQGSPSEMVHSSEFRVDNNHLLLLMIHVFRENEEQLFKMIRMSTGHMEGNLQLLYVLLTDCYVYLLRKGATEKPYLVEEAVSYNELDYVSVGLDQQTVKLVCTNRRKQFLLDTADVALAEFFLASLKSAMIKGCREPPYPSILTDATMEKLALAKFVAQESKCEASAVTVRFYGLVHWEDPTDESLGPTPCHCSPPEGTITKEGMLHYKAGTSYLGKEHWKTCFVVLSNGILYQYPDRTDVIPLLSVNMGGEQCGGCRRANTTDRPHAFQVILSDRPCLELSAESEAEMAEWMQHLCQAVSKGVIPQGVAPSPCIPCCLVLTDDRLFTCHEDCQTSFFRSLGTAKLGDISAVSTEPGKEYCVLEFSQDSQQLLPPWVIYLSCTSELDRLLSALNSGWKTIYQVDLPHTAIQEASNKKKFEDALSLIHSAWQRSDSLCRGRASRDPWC

Variants of: B1
Conditions: with pkhm2_human PLEKHM2, Q8IWE5

Row | Variant | effect of a mutation on the interaction
1 | MPITIGNGFLKSEILTNSPRNTKEAWWKVLWEKIKDFFFSTGKAKADRCLHEMLFAERAPTRERLTEIFFELKELACASQRDRFQVHNPHENDATIILRIMDQNEENELLRITQNTDTFSCEVMGNLYFLMKDRPDILKSHPQMTAMIKRRYSEIVDYPLPSTLCLNPAGAPILSVPLDNIEGYLYTELRKGHLDGAKAQAKATYLAAKIQSGIEKTTRILHHANISESTQQNAFLETMAMCGLKQLEIPPPHTHIPIEKMVKEVLLADKTFQAFLVTDPSTSQSMLAEIVEAISDQVFHAIFRIDPQAIQKMAEEQLTTLHVRSEQQSGCLCCFL [W197A;E201A] | decreasing interaction
